The values that follow come from paper PMC1557824.

In data set [1] the target is recombinant Pichia pastoris zeta crystallin (PpZTA1) (Pichia pastoris). Put plainly: SEC. On the technique in general: Size exclusion chromatography separates by hydrodynamic size, large species first.
For data set [2], the target named is T1, PpZTA1 (zeta crystallin / quinone oxidoreductase), recombinant (Pichia pastoris, UniProt F2QTB9 1-336).
T1 sequence: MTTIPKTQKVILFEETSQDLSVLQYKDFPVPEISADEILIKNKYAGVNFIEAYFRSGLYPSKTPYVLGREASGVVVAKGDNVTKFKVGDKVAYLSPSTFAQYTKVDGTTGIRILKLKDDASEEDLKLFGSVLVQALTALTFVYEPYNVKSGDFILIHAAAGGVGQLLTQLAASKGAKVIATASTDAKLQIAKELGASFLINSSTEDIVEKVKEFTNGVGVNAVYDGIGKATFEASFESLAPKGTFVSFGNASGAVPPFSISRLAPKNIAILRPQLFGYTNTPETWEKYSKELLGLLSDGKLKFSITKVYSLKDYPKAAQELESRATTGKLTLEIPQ
Kind of data set: EMSA.

On to “recombinant Pichia pastoris zeta crystallin (PpZTA1) (natural protein)”, for which, in data set [1], the stoichiometry N (in general, a count of units in the complex or per binding partner) turned out to be 2.

B1: 288 (ssDNA)
DNA: ACCCGCTTTTTGGATGATTATGCATTGTCTCCACATTGTATGCTTCCAAGATTCTGGTGG
For the molecule B1, in data set [2], the equilibrium dissociation constant (Kd) (usually the concentration at which binding is half-saturated) is 0.9 nM.

B2: 174 (ssDNA)
DNA: ACTTGACAGCAATATATAAACAGAAGGAAGCTGCCCTGTCTTAAACCTTTTTTTTTATCA
As to B2, the Kd in data set [2] was 0.1 nM.

B3: 229 (ssDNA)
DNA: GAATACTGCTGATAGCCTAACGTTCATGATCAAAATTTAACTGTTCTAACCCCT
As for B3, the Kd in data set [2] turned out to be 0.2 nM.
